Assay results reported in patent publication US20240132593A1 (KINETA, published 2024).
Positions count from the first letter of the chain named. Names may count otherwise.

B1: Spiked Peptide 27 (AMELQVQTGKDAPSN) (peptide)
peptide: AMELQVQTGKDAPSN
notes: synthetic overlapping peptide from human VISTA
B2: Spiked Peptide 28 (VQTGKDAPSNCVVYP) (peptide)
peptide: VQTGKDAPSNCVVYP
notes: as for B1
B3: Spiked Peptide 23 (LYCCLVVEIRHHHSE) (peptide)
peptide: LYCCLVVEIRHHHSE
notes: as for B1
B4: Spiked Peptide 29 (DAPSNCVVYPSSSQE) (peptide)
peptide: DAPSNCVVYPSSSQE
notes: as for B1
B5: Spiked Peptide 25 (HHHSEHRVHGAMELQ) (peptide)
peptide: HHHSEHRVHGAMELQ
notes: as for B1
B6: Antibody No. 457.1 (antibody, human IgG1, kappa)
light: EIVLTQSPATLSLSPGERATLSCGASQSVSSNYLAWYQQKPGLAPRLLIYGASSRATGVPDRFSGSGSGTDFTLTISRLEPEDFAVYYCQQYGYSYTFGQGTKLEIKRTVAAPSVFIFPPSDEQLKSGTASVVCLLNNFYPREAKVQWKVDNALQSGNSQESVTEQDSKDSTYSLSSTLTLSKADYEKHKVYACEVTHQGLSSPVTKSFNRGEC
heavy: not shown
B7: Antibody No. 474.1 with VH Y32H, VH Y52H (antibody, V domains shown)
VH: QVQLQESGPGLVKPSETLSLTCTVSGGSISSHYWSWIRQPPGKGLEWIGYIHYSGSTNYNPSLKSRVTISVDTSKSQFSLKLSSVTAADTAVYYCARDIPAFAFDIWGQGTMVIVSS
VL: EIVLTQSPATLSLSPGERATLSCRASQSVSYYLAWYQQKPGQAPRLLIYDAFNRATGIPARFSGSGSGTDFTLTISSLEPEDFAVYYCQQRINWPLTFGGGTKVEIK
B8: Antibody No. 474.1 with VH Y32H, VH Y33H (antibody, V domains shown)
VH: B7 VH with Y33H, H52Y
VL: B7 VL
B9: Antibody No. 474.1 with VL Y31H, VH Y52H (second of two rows so labelled, the 40th table r13) (antibody, human IgG1, V domains shown)
VH: B7 VH with H32Y
VL: B7 VL with Y31H
B10: Antibody No. 474.1 with VL Y32H, VH Y32H (antibody, V domains shown)
VH: B7 VH with H52Y
VL: B7 VL with Y32H
B11: Antibody No. 474.1 with VL Y32H, VH Y33H (antibody, V domains shown)
VH: B7 VH with H32Y, Y33H, H52Y
VL: B7 VL with Y32H
B12: Antibody No. 474.1 with VL Y32H, VH Y32H, VH Y52H (antibody, V domains shown)
VH: B7 VH
VL: B7 VL with Y32H
B13: Antibody No. 474.1 with VH Y32H, VH Y33H, VH Y52H (antibody, V domains shown)
VH: B7 VH with Y33H
VL: B7 VL
B14: Antibody No. 474.1 with VL Y32H, VH Y52H (antibody, V domains shown)
VH: B7 VH with H32Y
VL: B7 VL with Y32H
B15: Antibody No. 474.1 with VL Y32H, VH Y32H, VH Y33H (antibody, V domains shown)
VH: B7 VH with Y33H, H52Y
VL: B7 VL with Y32H
B16: Antibody No. 474.1 with VL Y31H, VH Y32H (antibody, V domains shown)
VH: B7 VH with H52Y
VL: B7 VL with Y31H
B17: Antibody No. 474.1 with VL Y31H, VH Y32H, VH Y33H (antibody, V domains shown)
VH: B7 VH with Y33H, H52Y
VL: B7 VL with Y31H
B18: Antibody No. 474.1 with VL Y31H, VH Y32H, VH Y52H (antibody, V domains shown)
VH: B7 VH
VL: B7 VL with Y31H
B19: Spiked Peptide 31 (SSSQESENITAA) (peptide)
peptide: SSSQESENITAA
notes: as for B1
B20: Spiked Peptide 26 (HRVHGAMELQVQTGK) (peptide)
peptide: HRVHGAMELQVQTGK
notes: as for B1
B21: Antibody No. 150.1 (antibody, human IgG1, kappa)
heavy: QVQLQESGPGLVKPSETLSLTCTVSGGSISSYYWSWIRQPPGKGLEWIGYIYYSGSTNYNPSLKSRVTISVDTSKSQFSLKLSSVTAADTAVYYCARDIPAFAFDIWGQGTMVIVSSASTKGPSVFPLAPSSKSTSGGTAALGCLVKDYFPEPVTVSWNSGALTSGVHTFPAVLQSSGLYSLSSVVTVPSSSLGTQTYICNVNHKPSNTKVDKKVEPKSCDKTHTCPPCPAPELLGGPSVFLFPPKPKDTLYITREPEVTCVVVDVSHEDPEVKFNWYVDGVEVHNAKTKPREEQYNSTYRVVSVLTVLHQDWLNGKEYKCKVSNKALPAPIEKTISKAKGQPREPQVYTLPPSRDELTKNQVSLTCLVKGFYPSDIAVEWESNGQPENNYKTTPPVLDSDGSFFLYSKLTVDKSRWQQGNVFSCSVMHEALHNHYTQKSLSLSPGK
light: not shown
notes: Human IgG1 with the YTE mutations (M252Y, S254T, T256E, EU numbering), kappa light chain; It is left out here; copies: 2 + 2
B22: Spiked Peptide 30 (CVVYPSSSQESENIT) (peptide)
peptide: CVVYPSSSQESENIT
notes: as for B1
B23: Spiked Peptide 24 (VVEIRHHHSEHRVHG) (peptide)
peptide: VVEIRHHHSEHRVHG
notes: as for B1
B24: Antibody No. 269.1 (antibody, human IgG1, kappa)
light: EIVLTQSPDFQSVTPKEKVTITCRASQSIGSSLHWYQQKPDQSPKLLIKYASQSISGVPSRFSGSGSGTDFTLTINSLEAEDAAAYYCHQSSSLPQTFGQGTKVEIKRTVAAPSVFIFPPSDEQLKSGTASVVCLLNNFYPREAKVQWKVDNALQSGNSQESVTEQDSKDSTYSLSSTLTLSKADYEKHKVYACEVTHQGLSSPVTKSFNRGEC
heavy: not shown

Columns and labels:
Antibody No. 245.1 [1] = experiment: peptide blocking ELISA on plate-bound VISTA, peptide 2 ug/mL
Antibody No. 465.1 [2] = molecular target: T1, Antibody No. 465.1; experiment: as above
T1 construct: also called Ab No. 465.1

VSTB174 [3] = experiment: as above
VSTB174, sequence (VH, as listed by the source, chain 1 of 2): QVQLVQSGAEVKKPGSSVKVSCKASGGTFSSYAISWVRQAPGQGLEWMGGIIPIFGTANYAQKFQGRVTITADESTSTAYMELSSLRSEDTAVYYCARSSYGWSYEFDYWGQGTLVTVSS
VSTB174, sequence (VL, as listed by the source, chain 2 of 2): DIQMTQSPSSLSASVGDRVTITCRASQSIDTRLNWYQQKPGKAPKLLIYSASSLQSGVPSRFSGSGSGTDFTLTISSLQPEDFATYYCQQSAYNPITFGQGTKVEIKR

Antibody No. 245.1 [4] = experiment: peptide blocking ELISA on plate-bound VISTA, peptide 20 ug/mL
Antibody No. 465.1 [5] = molecular target: T1, Antibody No. 465.1; experiment: as above
VSTB174 [6] = experiment: as above
[7] = molecular target: T2, hVISTA ECD-Fc R54A, F62A, Q63A (human); experiment: ELISA on immobilized VISTA-Fc (5 µg/mL), antibody at 10 µg/mL
T2 construct: also called human VISTA-Fc 54A62A63A; triple VISTA-Fc mutant

[8] = molecular target: T3, VISTA-His ECD (Sino Biological 13482-H08H) (human, UniProt Q9H7M9 33-194); experiment: BLI (Octet K2), ratio of off-rates at pH 7.4 to control Ab No. 245.1
T3 construct: Bought protein; also called VISTA-ECD; not shown: His tag

[9] = molecular target: T3, VISTA-His ECD (Sino Biological …); experiment: BLI (Octet K2), ratio of the pH 6.0 fold change to the pH 7.4 fold change
rhFcRn (R&D) [10] = molecular target: T4, rhFcRn (R&D) (human (printed as rhFcRn), UniProt P55899 24-297; P61769 21-119); experiment: BLI Octet K2, antibody on FAB2G sensor, rhFcRn analyte (row of 800 nM), pH 6.0, 1:1 global fit
T4 construct: Bought reagent; also called neonatal Fc receptor; FcRn ligand

rhFcRn (R&D) [11] = molecular target: T4, rhFcRn (R&D); experiment: BLI Octet K2, antibody on FAB2G sensor, rhFcRn analyte (row of 200 nM), pH 6.0, 1:1 global fit
rhFcRn (R&D) [12] = molecular target: T4, rhFcRn (R&D); experiment: BLI Octet K2, antibody on FAB2G sensor, rhFcRn analyte (row of 50 nM), pH 6.0, 1:1 global fit

| Binder | percent reduction in ELISA signal (Antibody No. 245.1 [1]) [%] | percent reduction in ELISA signal (Antibody No. 465.1 [2]) [%] | percent reduction in ELISA signal (VSTB174 [3]) [%] | percent reduction in ELISA signal (Antibody No. 245.1 [4]) [%] | percent reduction in ELISA signal (Antibody No. 465.1 [5]) [%] | percent reduction in ELISA signal (VSTB174 [6]) [%] | Kdis (pH 7.4) ÷ Kdis, Ab No. 245.1 (pH 7.4) [8] [s⁻¹] | ΔKdis (pH 6.0)/ΔKdis (pH 7.4) [9] | also measured |
| --- | --- | --- | --- | --- | --- | --- | --- | --- | --- |
| B1 | 0 | 0 | 13 | 0 | 3 | 24 | – | – | – |
| B2 | 0 | 0 | 0 | 5 | 0 | 5 | – | – | – |
| B3 | 9 | 2 | 31 | 37 | 36 | 67 | – | – | – |
| B4 | 0 | 0 | 8 | 0 | 14 | 10 | – | – | – |
| B5 | 10 | 10 | 45 | 52 | 67 | 83 | – | – | – |
| B6 | – | – | – | – | – | – | – | – | binding result [7]: binds |
| B7 | – | – | – | – | – | – | 5 | 3.4 | – |
| B8 | – | – | – | – | – | – | 4 | 6.9 | – |
| B9 | – | – | – | – | – | – | 37 | 3.8 | – |
| B10 | – | – | – | – | – | – | 15 | 5.9 | – |
| B11 | – | – | – | – | – | – | 52 | 2.7 | – |
| B12 | – | – | – | – | – | – | 71 | 1.8 | – |
| B13 | – | – | – | – | – | – | 14 | 5.2 | – |
| B14 | – | – | – | – | – | – | 45 | 3.4 | – |
| B15 | – | – | – | – | – | – | 56 | 2.4 | – |
| B16 | – | – | – | – | – | – | 12 | 5.8 | – |
| B17 | – | – | – | – | – | – | 68 | 1.5 | – |
| B18 | – | – | – | – | – | – | 61 | 2 | – |
| B19 | 0 | 0 | 15 | 8 | 5 | 27 | – | – | – |
| B20 | 0 | 0 | 17 | 0 | 2 | 25 | – | – | – |
| B21 | – | – | – | – | – | – | – | – | Kd (rhFcRn (R&D) [10]): 84.1 nM; koff (rhFcRn (R&D) [10]): 0.0192 s⁻¹; kon (rhFcRn (R&D) [10]): 228000 M⁻¹ s⁻¹; Kd (rhFcRn (R&D) [11]): 84.1 nM; koff (rhFcRn (R&D) [11]): 0.0192 s⁻¹; kon (rhFcRn (R&D) [11]): 228000 M⁻¹ s⁻¹; Kd (rhFcRn (R&D) [12]): 84.1 nM; koff (rhFcRn (R&D) [12]): 0.0192 s⁻¹; kon (rhFcRn (R&D) [12]): 228000 M⁻¹ s⁻¹ |
| B22 | 0 | 0 | 12 | 0 | 0 | 21 | – | – | – |
| B23 | 8 | 16 | 48 | 41 | 43 | 82 | – | – | – |
| B24 | – | – | – | – | – | – | – | – | binding result [7]: binds |
